From publication PMC12901311, “HEXIM1 inter-monomer autoinhibition governs 7SK RNA binding specificity and P-TEFb inactivation” (Nature Communications, 2024)
Where a chain is given by its changes, count along the chain named. Names and notes keep the numbering of the source. Values joined by “and” are separate entries in the source; they are usually repeats but may differ in a detail not shown here. Identical values can stand only once.

T1: Hexim1-A12m (human) (UniProt O94992)
T1 sequence: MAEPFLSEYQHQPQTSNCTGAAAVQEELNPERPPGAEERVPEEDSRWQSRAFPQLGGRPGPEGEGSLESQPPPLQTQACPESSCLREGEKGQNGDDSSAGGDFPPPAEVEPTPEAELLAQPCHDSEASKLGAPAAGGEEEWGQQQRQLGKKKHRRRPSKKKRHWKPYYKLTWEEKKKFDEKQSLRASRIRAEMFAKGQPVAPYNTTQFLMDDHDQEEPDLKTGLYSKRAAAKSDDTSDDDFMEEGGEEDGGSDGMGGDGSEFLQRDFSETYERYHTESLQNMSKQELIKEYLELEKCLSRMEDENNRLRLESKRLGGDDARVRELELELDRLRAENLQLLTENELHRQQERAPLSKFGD

T2: Hexim1-A3m (human) (UniProt O94992)
T2 sequence: T1 sequence

T3: Hexim1 BRARM1 (human, UniProt O94992 141-159)
T3 chain: WGQQQRQLGKKKHRRRPSK

B1: Hexim1 L-AR-CC dimeric protein (domain or fragment, human, UniProt O94992 171-359, looked up)
chain: TWEEKKKFDEKQSLRASRIRAEMFAKGQPVAPYNTTQFLMDDHDQEEPDLKTGLYSKRAAAKSDDTSDDDFMEEGGEEDGGSDGMGGDGSEFLQRDFSETYERYHTESLQNMSKQELIKEYLELEKCLSRMEDENNRLRLESKRLGGDDARVRELELELDRLRAENLQLLTENELHRQQERAPLSKFGD
notes: Hexim1, human; linker (L), Acidic Region (AR) and coiled-coil domain (CC, 254-359); source: E. coli BL21-GOLD(DE3), purified
B2: Full-length human Hexim1 protein (aa 1-359) (natural protein)
chain: GMAEPFLSEYQHQPQTSNCTGAAAVQEELNPERPPGAEERVPEEDSRWQSRAFPQLGGRPGPEGEGSLESQPPPLQTQACPESSCLREGEKGQNGDDSSAGGDFPPPAEVEPTPEAELLAQPCHDSEASKLGAPAAGGEEEWGQQQRQLGKKKHRRRPSKKKRHWKPYYKLTWEEKKKFDEKQSLRASRIRAEMFAKGQPVAPYNTTQFLMDDHDQEEPDLKTGLYSKRAAAKSDDTSDDDFMEEGGEEDGGSDGMGGDGSEFLQRDFSETYERYHTESLQNMSKQELIKEYLELEKCLSRMEDENNRLRLESKRLGGDDARVRELELELDRLRAENLQLLTENELHRQQERAPLSKFGD
notes: non-native glycine that remains at the N-terminus after TEV protease cleavage; Hexim1, human, aa 1-359; also called Hexim1 dimer; full-length Hexim1; not shown: His6, N-terminal, cleaved; MBP, N-terminal, cleaved
B3: Monomeric Hexim1 BR-L-AR (aa 142-253) (domain or fragment, human)
chain: GGQQQRQLGKKKHRRRPSKKKRHWKPYYKLTWEEKKKFDEKQSLRASRIRAEMFAKGQPVAPYNTTQFLMDDHDQEEPDLKTGLYSKRAAAKSDDTSDDDFMEEGGEEDGGSD
notes: non-native glycine that remains at the N-terminus after TEV protease cleavage; Hexim1, human, residues 142-253: Basic Region, linker with PYNT motif, Acidic Region; 15N-labelled as the reporter in the PRE NMR experiments; unlabelled in NativePAGE and mass photometry; also called Hexim1 central region construct; not shown: His6, N-terminal, cleaved; MBP, N-terminal, cleaved
B4: Hexim1 BR-L-AR(A201C^MTSL) (domain or fragment, human)
chain: B3 chain with A61C
modifications: MTSL nitroxide spin label on C201
notes: non-native glycine that remains at the N-terminus of BR-L-AR after TEV protease cleavage; Hexim1, human, residues 142-253 (BR-L-AR) with A201C; 15N-labelled; not shown: His6, N-terminal, cleaved; MBP, N-terminal, cleaved
B5: Hexim1 BR-L-AR(S183C^MTSL) (domain or fragment, human)
chain: B3 chain with S43C
modifications: MTSL nitroxide spin label on C183
notes: non-native glycine that remains at the N-terminus of BR-L-AR after TEV protease cleavage; Hexim1, human, residues 142-253 (BR-L-AR) with S183C; 15N-labelled; not shown: His6, N-terminal, cleaved; MBP, N-terminal, cleaved
B6: Hexim1 BR-L-AR(S237C^MTSL) (domain or fragment, human)
chain: B3 chain with S97C
modifications: MTSL nitroxide spin label on C237
notes: non-native glycine that remains at the N-terminus of BR-L-AR after TEV protease cleavage; Hexim1, human, residues 142-253 (BR-L-AR) with S237C; not shown: His6, N-terminal, cleaved; MBP, N-terminal, cleaved
B7: Hexim1 BR-L-AR(S233C^MTSL) (domain or fragment, human)
chain: B3 chain with S93C
modifications: MTSL nitroxide spin label on C233
notes: non-native glycine that remains at the N-terminus of BR-L-AR after TEV protease cleavage; Hexim1, human, residues 142-253 (BR-L-AR) with S233C; 14N in the inter-only experiment; not shown: His6, N-terminal, cleaved; MBP, N-terminal, cleaved
B8: Hexim1 BR-L-AR(S226C^MTSL) (domain or fragment, human)
chain: B3 chain with S86C
modifications: MTSL nitroxide spin label on C226
notes: non-native glycine that remains at the N-terminus of BR-L-AR after TEV protease cleavage; Hexim1, human, residues 142-253 (BR-L-AR) with S226C; not shown: His6, N-terminal, cleaved; MBP, N-terminal, cleaved

Columns and labels:
[1] = target: T4, Hexim1 full-length (human, UniProt O94992 1-359); assay: ITC; conditions: N=1.40; protein in syringe (inferred from N); ITC: 20 mM HEPES pH 7.5, 150 mM KCl, 1 mM TCEP, 295 K; NMR: 50 mM Na phosphate pH 6.2, 150 mM KCl, 0.02% NaN3, 5% D2O, 298 K; EMSA: binding buffer (20 mM HEPES …)
[2] = target: T1, Hexim1-A12m (human); assay: ITC; conditions: ITC: 20 mM HEPES pH 7.5, 150 mM KCl, 1 mM TCEP, 295 K; NMR: 50 mM Na phosphate pH 6.2, 150 mM KCl, 0.02% NaN3, 5% D2O, 298 K; EMSA: binding buffer (20 mM HEPES …)
[3] = target: T2, Hexim1-A3m (human); assay: ITC; conditions: N=0.34; ITC: 20 mM HEPES pH 7.5, 150 mM KCl, 1 mM TCEP, 295 K; NMR: 50 mM Na phosphate pH 6.2, 150 mM KCl, 0.02% NaN3, 5% D2O, 298 K; EMSA: binding buffer (20 mM HEPES …)
[4] = target: the molecule itself; assay: mass photometry; Refeyn TwoMP; freshly purified proteins alone or mixed as complexes, drop-diluted into phosphate-buffered saline pH 7.4 to 40 nM final total protein
[5] = target: T4, Hexim1 full-length; assay: ITC; N=0.47; ITC: 20 mM HEPES pH 7.5, 150 mM KCl, 1 mM TCEP, 295 K; NMR: 50 mM Na phosphate pH 6.2, 150 mM KCl, 0.02% NaN3, 5% D2O, 298 K; EMSA: binding buffer (20 mM HEPES); conditions: protein: recombinant; tags: MBP-His6 removed by TEV; non-native N-terminal G remains; chain copies: 2; hairpin
[6] = target: T3, Hexim1 BRARM1; assay: NMR; Site2 shifted, not Site4; ITC: 20 mM HEPES pH 7.5, 150 mM KCl, 1 mM TCEP, 295 K; NMR: 50 mM Na phosphate pH 6.2, 150 mM KCl, 0.02% NaN3, 5% D2O, 298 K; EMSA: binding buffer (20 mM HEPES); conditions: protein: recombinant; tags: GB1-His6 removed by TEV; non-native N-terminal G; hairpin
[7] = target: T4, Hexim1 full-length; assay: ITC; N=0.49; ITC: 20 mM HEPES pH 7.5, 150 mM KCl, 1 mM TCEP, 295 K; NMR: 50 mM Na phosphate pH 6.2, 150 mM KCl, 0.02% NaN3, 5% D2O, 298 K; EMSA: binding buffer (20 mM HEPES); conditions: protein: recombinant; tags: MBP-His6 removed by TEV; non-native N-terminal G remains; chain copies: 2; hairpin
[8] = target: T4, Hexim1 full-length; assay: ITC; N=0.76; ITC: 20 mM HEPES pH 7.5, 150 mM KCl, 1 mM TCEP, 295 K; NMR: 50 mM Na phosphate pH 6.2, 150 mM KCl, 0.02% NaN3, 5% D2O, 298 K; EMSA: binding buffer (20 mM HEPES); conditions: protein: recombinant; tags: MBP-His6 removed by TEV; non-native N-terminal G remains; chain copies: 2; hairpin with U40U41 and U63 bulges
[9] = target: Hexim1 NBLA (N-BR-L-AR) (human, UniProt O94992 1-253); assay: ITC; N=0.81; ITC: 20 mM HEPES pH 7.5, 150 mM KCl, 1 mM TCEP, 295 K; NMR: 50 mM Na phosphate pH 6.2, 150 mM KCl, 0.02% NaN3, 5% D2O, 298 K; EMSA: binding buffer (20 mM HEPES); conditions: protein: recombinant; hairpin with U40U41 and U63 bulges
[10] = target: the molecule itself; assay: paramagnetic relaxation enhancement (PRE) NMR; total interaction experiment: 15N-labelled and MTSL-tagged BR-L-AR alone, captures both intra- and inter-monomer contacts; 15N-1H HSQC, 290.15 K, 600 MHz; 50 mM sodium phosphate pH 6.2, 150 mM KCl
[11] = target: B3; assay: paramagnetic relaxation enhancement (PRE) NMR; inter-only experiment: 1:1 mixture of 15N-labelled untagged BR-L-AR (reporter) with 14N-labelled MTSL-tagged BR-L-AR (broadener); 15N-1H HSQC, 290.15 K, 600 MHz; 50 mM sodium phosphate pH 6.2, 150 mM KCl; conditions: both partners purified
[12] = target: Hexim1 BR-L-AR (human, UniProt O94992 142-253); assay: NMR; ITC: 20 mM HEPES pH 7.5, 150 mM KCl, 1 mM TCEP, 295 K; NMR: 50 mM Na phosphate pH 6.2, 150 mM KCl, 0.02% NaN3, 5% D2O, 298 K; EMSA: binding buffer (20 mM HEPES); conditions: protein: recombinant; tags: MBP-His6 removed by TEV; non-native N-terminal G; hairpin

Q: With 7SK SL1-d(api) as the molecule, how does the Kd [1] read?
A: Its Kd is 0.096 µM.

Q: For “GGAUGUGAGGGCGAUCUGGCUUCGGCCUUCCUCCCUCACCGCUCCA [7SK SL1-p]”, which binding signal (fold tighter than wild-type Hexim1) [2] is on record?
A: Its binding signal (fold tighter than wild-type Hexim1) is 6.

Q: And the Kd [3]?
A: Its Kd is 0.276 µM.

Q: B1 was tested. Which “stoichiometry N” value [4] did it give?
A: Its value is 2.

Q: GGCUGUCACCUUCGGGCUAGGCGGCC (structured_RNA) [7SK SL1-dII] was tested. Which Kd [5] did it give?
A: The Kd was 1.22 ± 0.129 µM.

Q: Does GGCUGCGACAUCUGUCACCUUCGGGCUAGGCGGGUGUCCCC (structured_RNA) [7SK SL1-dIIm] bind [6]?
A: Result: binds

Q: GGAUGUGAGGGCGAUCUGGCUUCGGCCUUCCUCCCUCACCGCUCCA (structured_RNA) [7SK SL1-p] was tested. Which Kd [7] did it give?
A: Its Kd is 2.21 ± 0.197 µM.

Q: B2 was tested. Which “stoichiometry N” value [4] did it give?
A: Its value is 2.

Q: How did the Kd [8] turn out when GGCCAUUGAUCGCCUUCGGGCUGAUCUGGCC (structured_RNA) [7SK SL1-dI] was run?
A: The Kd was 0.78 ± 0.025 µM.

Q: What about the Kd [9] of the same molecule?
A: The Kd was 0.083 ± 0.028 µM.

Q: Which “stoichiometry N” value [4] does the source give for B3 here?
A: The value was 3 and 4.

Q: Does B4 bind [10]?
A: Result: binds

Q: Does B5 bind [10]?
A: Result: binds

Q: Does B6 bind [11]?
A: Result: binds

Q: Does B7 bind [11]?
A: Result: binds

Q: What does the source list for B8?
A: binding result [11]: binds; binding result [10]: binds

Q: Does GGCGAUCUGGCUGCGACAUCUGUCACCCCAUUGAUCGCC (structured_RNA) [7SK SL1alt (circular), loop version not stated] bind [12]?
A: Result: binds
